From US20060166860A1, “Zinc transporter compositions for the treatment of cardiovascular diseases” (priority 2002, published 2006)
“Also recorded” adds a separate entry of the source.

Legend:
[1] = tested on: intracellular zinc; assay: Fura-2 fluorescence signal of intracellular zinc in HEK 293 cells; type: cell-based, human; conditions: HEK 293 cells exposed to zinc, then TPEN (FIG. 1, FIG. 3 inset)
Method: (§1) Cells were incubated for 30 minutes with 5 μM of the ratiometric dye Fura-2-AM (TEF Labs) in 0.1% BSA-sodium Ringer's solution. Fura-2-AM binds zinc with very high affinity. After incubation, the cells were washed in Ringer's solution and the cover glass mounted on a holder that allowed the perfusion of liquids into the cells. Signals resulting from Ca^+2 or Zn^+2 changes were distinguished by using the intracellular zinc chelator TPEN. Changes in intracellular cation concentration were monitored by a single cell imaging system, consisting of a Zeiss Axiovert 100, inverted microscope, Polychrome II monochromator (TILL Photonics) and a cooled CCD (PCO). The data was acquired and processed by Axon Imaging Workbench 2, Excel and KleidaGraph. Fura-2 was excited at 340 nm and 380 nm and the image obtained with a 510 nm long-pass filter. The data was analyzed post acquisition, by selecting single cells (30-50) from the field of view and recording their activity.
To measure the accumulation of intracellular zinc, HEK 293 cells were superfused with Ca-free, zinc-containing Ringer solution, and the […] of Fura-2 was evaluated. Fura-2 is a highly sensitive probe for changes in intracellular Zn^2+ concentration.

[2] = tested on: LTCC; assay: Zinc influx in astrocytes pre-treated with zinc; type: cell-based; conditions: astrocytes pre-treated with 20, 50 or 100 μM zinc for 24 or 48 hours (FIG. 10)
Method: Cells were superfused with a Ringer's solution containing: 120 mM NaCl, 5 mM KCl, 20 mM glucose, 10 mM Hepes, 0.5 mM MgCl, 1.8 mM CaCl2 at pH 7.4. For depolarization experiments aimed to fully activate the LTCC, 45 mM NaCl were replaced with 45 mM KCl. ZnSO4 was added at the indicated concentration to this solution.
as §1, with “Fura-2 was excited at 340 nm and 380 nm and the image obtained with a 510 nm long-pass filter.” left out
Astrocytes were pre-treated with 20, 50 or 100 μM of zinc for 24 or 48 hours, and subsequent rates of zinc influx were determined. […]

[3] = tested on: ZnT-1; assay: ZnT-1 expression in cultured brain astrocytes by Western Blot; type: cell-based; conditions: 20 and 50 μM Zn for 12 hours (FIG. 9)
Method: (§2) Western Blots were carried out in the classical method described in Molecular Cloning—A laboratory manual by Sambroock et al., Cold Spring Harbor Laboratory Press, 2nd edition, 1989.
In astrocytes, zinc influx is mainly mediated by the LTCC. Astrocytes were treated with sub-lethal amounts (20 and 50 μM) of Zn for 12 hours, and ZnT-1 expression evaluated by Western Blot (FIG. 9b).

[4] = tested on: L-type Ca channels; assay: Ca influx into depolarized PC12 cells expressing endogenous L-type Ca channels; type: cell-based; conditions: ZnT-1 transfected vs control PC12 cells, 1.8 mM calcium, high K+ (FIG. 8)
Method: (§3) PC12 and human embryonic kidney (HEK) 293 cells were grown in DMEM medium (Sigma) as described [Montrose Rafizadeh, C. et al. (1997) J. Cell Physiol. 170:299-308], and seeded on cover slides for 1-2 days prior to measurements.
(§4) HEK 293 cells were transiently transfected with 3 μg of plasmid containing ZnT-1 (kindly provided by Dr. R. D. Palmiter, Howard Hughes Medical Institute, University of Washington, Seattle, Wash.) or vector alone, using the calcium precipitation method as described [Sekler, I. et al. (1995) J Biol. Chem. 270:11251-6]. Pherochromocytoma PC12 cells were co-transfected with ZnT-1 or EYFP (Clontech) for control, using the Fugene-6 reagent (Roche). Measurements were performed 36-48 hours following transfection.
Cells were superfused with a Ringer's solution containing: 120 mM NaCl, 5 mM KCl, 20 mM glucose, 10 mM Hepes, 0.5 mM MgCl, 1.8 mM CaCl2 at pH 7.4. […]
(§5) Cells were incubated for 30 minutes with 5 μM of the ratiometric dye Fura-2-AM (TEF Labs) in 0.1% BSA-sodium Ringer's solution. […] Changes in intracellular cation concentration were monitored by a single cell imaging system, consisting of a Zeiss Axiovert 100, inverted microscope, Polychrome II monochromator (TILL Photonics) and a cooled CCD (PCO). […] The data was analyzed post acquisition, by selecting single cells (30-50) from the field of view and recording their activity. […]

[5] = tested on: LTCC; assay: Zinc influx into HEK 293 cells transfected with LTCC alone or with ZnT-1; type: cell-based, human
Method: as §3
as §4, with “transfection. […]” for “transfection.”
Cells were incubated for 30 minutes with 5 μM of the ratiometric dye Fura-2-AM (TEF Labs) in 0.1% BSA-sodium Ringer's solution. […] Changes in intracellular cation concentration were monitored by a single cell imaging system, consisting of a Zeiss Axiovert 100, inverted microscope, Polychrome II monochromator (TILL Photonics) and a cooled CCD (PCO). […] The data was analyzed post acquisition, by selecting single cells (30-50) from the field of view and recording their activity.
Rates of zinc influx into HEK293 cells transfected with LTCC only or co-transfected with LTCC and ZnT-1 were measured. […]

[6] = tested on: L-type Ca channel (LTCC); assay: Zinc influx into HEK 293 cells, Fura-2 fluorescence; type: cell-based, human; conditions: control vs ZnT-1 transfected HEK 293 cells, 400 μM zinc (FIG. 4a)
Method: as §3
as §4, with “transfection. […]” for “transfection.”
as §5
Control and ZnT-1 transfected HEK 293 cells were exposed to 400 μM zinc, and the rate of zinc influx was monitored over time (FIG. 4a-b).

[7] = tested on: LTCC; assay: Immunoprecipitation with ZnT-1 antibody and Western blot with LTCC antibody, HEK 293 cells; type: binding, human; conditions: HEK 293 cells co-transfected with LTCC and ZnT-1 (FIG. 11)
Method: as §2
(§6) Immunopercipitation using ZnT-1 antibody followed by Western blot with LTCC antibody was performed.

[8] = tested on: LTCC; assay: LTCC expression by immunoblot, HEK 293 cells transfected with LTCC; type: cell-based, human; conditions: presence or absence of ZnT-1 (FIG. 7)
Method: as §2
(§7) Thus, ZnT-1 putative regulation of LTCC is likely to be at the functional level, and not at the expression level.

[9] = tested on: LTCC; assay: Immunoprecipitation with ZnT-1 antibody and Western blot with LTCC antibody, cardiac tissue; type: binding; conditions: mouse cardiac tissue expressing both ZnT-1 and LTCC (FIG. 11)
Method: as §2, §6

[10] = tested on: HEK 293 cells; assay: Zinc efflux in HEK 293 cells transfected with ZnT-1; type: cell-based, human; conditions: cells transfected with ZnT-1 vs non-transfected (FIG. 3)
Method: as §3, §4
Cells were incubated for 30 minutes with 5 μM of the ratiometric dye Fura-2-AM (TEF Labs) in 0.1% BSA-sodium Ringer's solution. Fura-2-AM binds zinc with very high affinity. […] Changes in intracellular cation concentration were monitored by a single cell imaging system, consisting of a Zeiss Axiovert 100, inverted microscope, Polychrome II monochromator (TILL Photonics) and a cooled CCD (PCO). […] The data was analyzed post acquisition, by selecting single cells (30-50) from the field of view and recording their activity.

[11] = tested on: LTCC; assay: LTCC expression by immunoblot, PC12 cells endogenously expressing LTCC; type: cell-based; conditions: presence or absence of ZnT-1 (FIG. 7)
Method: as §2, §7

## c1ccc(CN(CCN(Cc2ccccn2)Cc2ccccn2)Cc2ccccn2)nc1 [TPEN, tetrakis-(2-pyridylmethyl)ethylenediamine]
[1]
  Fura-2 fluorescence signal: lowered the fluorescence signal; also recorded: eliminated

## [Zn+2] [Zinc, ZnSO4]
[2]
  rate of zinc influx: reduction of zinc influx
[3]; listed as Zn^2+
  ZnT-1 expression: induced by Zn^2+ in a dose-dependent manner
[3]; listed as Zn^+2
  ZnT-1 expression: induced by Zn^+2 in a dose-dependent manner

B1: ZnT-1: protein encoded by the gene ZnT-1, originally described as a zinc transporter; GenBank Accession No. U17132; expressed by transfection (protein, UniProt Q9Y6M5 1-507, looked up)
Proton-coupled zinc …: MGCWGRNRGRLLCMLALTFMFMVLEVVVSRVTSSLAMLSDSFHMLSDVLALVVALVAERFARRTHATQKNTFGWIRAEVMGALVNAIFLTGLCFAILLEAIERFIEPHEMQQPLVVLGVGVAGLLVNVLGLCLFHHHSGFSQDSGHGHSHGGHGHGHGLPKGPRVKSTRPGSSDINVAPGEQGPDQEETNTLVANTSNSNGLKLDPADPENPRSGDTVEVQVNGNLVREPDHMELEEDRAGQLNMRGVFLHVLGDALGSVIVVVNALVFYFSWKGCSEGDFCVNPCFPDPCKAFVEIINSTHASVYEAGPCWVLYLDPTLCVVMVCILLYTTYPLLKESALILLQTVPKQIDIRNLIKELRNVEGVEEVHELHVWQLAGSRIIATAHIKCEDPTSYMEVAKTIKDVFHNHGIHATTIQPEFASVGSKSSVVPCELACRTQCALKQCCGTLPQAPSGKDAEKTPAVSISCLELSNNLEKKPRRTKAENIPAVVIEIKNMPNKQPESSL
notes: protein encoded by the gene ZnT-1, originally described as a zinc transporter; expressed by transfection
[4]
  rate of Ca influx: inhibits the rate of Ca influx
[5]; HEK 293, co-expression of LTCC and ZnT-1 vs LTCC alone and non-transfected control (FIG. 6)
  zinc influx: reduction in the zinc influx to levels comparable to control; also recorded: reduction in the cation influx to levels comparable to control
[5]; HEK293 co-transfected with LTCC and ZnT-1 vs LTCC alone (FIG. 4c)
  reduction in rate of zinc permeation through LTCC: 5 fold
[6]
  rate of zinc influx: attenuated
[7]
  co-immunoprecipitation of ZnT-1 with LTCC: much higher co-immunopercipitation; also recorded: reveals a band
[8]
  LTCC expression level: Neither cell type showed changes; also recorded: not changed
[9]
  co-immunoprecipitation of ZnT-1 with LTCC: A similar effect; also recorded: reveals a band
[10]
  zinc efflux: not accelerated
[11]
  LTCC expression level: Neither cell type showed changes; also recorded: not changed; also recorded: without changing LTCC expression
